US7172865B2, “Rapid and sensitive assay for the detection and quantification of coregulators of nucleic acid binding factors” (Saint Louis University, priority 2001, dated 2007)

Test system: CAP5/CAP3 and CAP1/CAP4 duplexes
Assay: two-color simultaneous detection, coumarin-labeled CAP constructs
Assay type: binding
Details: excitation 433 nm, one protein only
Description: The compatibility of the assays described in the instant invention with a variety of fluorescence probes emitting at different wavelengths allows for the designing of variations in which two or more proteins may be detected simultaneously. Nucleic acid constructs specific for each of the proteins to be detected may be labeled with probes that emit light at different wavelengths. In this example, the reaction mixture contained nucleic acid constructs labeled with 7-diethylaminocoumarin-3-carboxylic acid for detecting CAP protein (described in EXAMPLE 2) and nucleic acid constructs labeled with fluorescein for detecting TrpR protein (described in EXAMPLE 6). Specifically, 100 nM CAP5/CAP3, 120 nM CAP1/CAP4, 100 nM TRP2/TRP3, and 120 nM TRP1/TRP4 duplexes were present in the reaction mixture.
The fluorescence spectra with the excitation at 433 nm (excitation of 7-diethylaminocoumarin-3-carbo acid, FIG. 17A) and with the excitation at 490 nm (excitation of fluorescein, FIG. 17B) were recorded in the absence of the proteins (curves 1), in the presence of CAP only (curves 2), in the presence of TrpR only (curves 3), and in the presence of both CAP and TrpR (curves 4). In the presence of only CAP there was no change in the fluorescein signal (FIG. 17B, curve 2) whereas about 60% quenching of the 7-diethylaminocoumarin-3-carbox acid signal was observed (FIG. 17A, curve 2). […]

B1: CAP: bacterial transcription activator from E. coli which binds DNA in a sequence specific, cAMP-dependent manner (protein, UniProt P0ACJ8 2-210, looked up)
DNA-binding transcriptional …: VLGKPQTDPTLEWFLSHCHIHKYPSKSTLIHQGEKAETLYYIVKGSVAVLIKDEEGKEMILSYLNQGDFIGELGLFEEGQERSAWVRAKTACEVAEISYKKFRQLIQVNPDILMRLSAQMARRLQVTSEKVGNLAFLDVTGRIAQTLLNLAKQPDAMTHPDGMQIKITRQEIGQIVGCSRETVGRILKMLEDQNLISAHGKTIVVYGTR
quenching of the 7-diethylaminocoumarin-3-carboxylic acid signal: about 60%
